Data: PMC9482650, “Quantitative fragmentomics allow affinity mapping of interactomes” (Nature Communications, 2022)
Blank lines part the entries; values can stand above or below the binder they belong to.

How the values were obtained:
Assay in all cases: holdup assay
Set-up in all cases: key: below the threshold = too weak to quantify, mostly under pKd 3.1 to 4
[1] = molecular target: ARHGEF12, Q9NZN5-2
[2] = molecular target: T1, DFNB31_2, Q9P202
T1 sequence (Q9P202 274-371, limits assumed, looked up): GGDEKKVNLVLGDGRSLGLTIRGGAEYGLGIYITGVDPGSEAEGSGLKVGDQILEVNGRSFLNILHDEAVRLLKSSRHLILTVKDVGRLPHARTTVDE

[3] = molecular target: DLG4_1, P78352
[4] = molecular target: DLG4_3, P78352
[5] = molecular target: T2, FRMPD1, Q5SYB0
T2 sequence (Q5SYB0 52-145, limits assumed, looked up): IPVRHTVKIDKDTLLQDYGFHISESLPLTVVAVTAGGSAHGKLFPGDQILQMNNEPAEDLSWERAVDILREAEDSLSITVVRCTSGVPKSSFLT

[6] = molecular target: GIPC2, Q8TF65
[7] = molecular target: GRID2IP_1, A4D2P6
[8] = molecular target: GRID2IP_2, A4D2P6
[9] = molecular target: T3, GRIP1_7, Q9Y3R0
T3 sequence (Q9Y3R0 999-1096, limits assumed, looked up): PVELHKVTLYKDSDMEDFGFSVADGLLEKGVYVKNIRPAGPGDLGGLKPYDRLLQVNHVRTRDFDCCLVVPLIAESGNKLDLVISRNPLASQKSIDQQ

[10] = molecular target: GRIP2_5, Q9C0E4
[11] = molecular target: GRIP2_6, Q9C0E4
[12] = molecular target: GRIP2_7, Q9C0E4
[13] = molecular target: T4, HTRA3, P83110
T4 sequence (P83110 354-453, limits assumed, looked up): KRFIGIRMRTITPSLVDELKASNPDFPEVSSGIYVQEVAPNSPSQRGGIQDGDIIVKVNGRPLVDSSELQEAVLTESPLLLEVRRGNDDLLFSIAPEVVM

[14] = molecular target: LDB3, O75112
[15] = molecular target: LNX1_1, Q8TBB1
[16] = molecular target: MAGI2_2, Q86UL8
[17] = molecular target: MAST2, Q6P0Q8
[18] = molecular target: T5, MPP2, Q14168
T5 sequence (Q14168 180-250, limits assumed, looked up): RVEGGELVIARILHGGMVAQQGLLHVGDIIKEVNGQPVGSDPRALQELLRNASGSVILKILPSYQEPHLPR

[19] = molecular target: T6, MPP6, Q9NZW5
T6 sequence (Q9NZW5 125-219, limits assumed, looked up): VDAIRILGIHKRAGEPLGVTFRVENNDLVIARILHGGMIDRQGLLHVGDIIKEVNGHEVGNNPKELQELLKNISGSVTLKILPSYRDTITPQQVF

[20] = molecular target: T7, PDZRN3_1, Q9UPQ7
T7 sequence (Q9UPQ7 244-349, limits assumed, looked up): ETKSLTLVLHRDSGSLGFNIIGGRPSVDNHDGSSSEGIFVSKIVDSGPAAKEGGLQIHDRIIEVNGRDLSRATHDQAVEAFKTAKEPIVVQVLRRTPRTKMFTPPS

[21] = molecular target: SCRIB_1, Q14160
[22] = molecular target: SCRIB_2, Q14160
[23] = molecular target: SCRIB_3, Q14160
[24] = molecular target: T8, SNTA1, Q13424
T8 sequence (Q13424 82-180, limits assumed, looked up): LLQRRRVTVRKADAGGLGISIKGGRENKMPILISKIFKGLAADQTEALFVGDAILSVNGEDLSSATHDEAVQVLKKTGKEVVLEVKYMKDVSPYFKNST

[25] = molecular target: T9, SNTB1, Q13884
T9 sequence (Q13884 107-205, limits assumed, looked up): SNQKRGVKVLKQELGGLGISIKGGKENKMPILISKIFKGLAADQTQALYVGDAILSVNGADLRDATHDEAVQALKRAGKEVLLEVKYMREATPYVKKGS

[26] = molecular target: T10, TJP3_3, O95049
T10 sequence (O95049 375-456, limits assumed, looked up): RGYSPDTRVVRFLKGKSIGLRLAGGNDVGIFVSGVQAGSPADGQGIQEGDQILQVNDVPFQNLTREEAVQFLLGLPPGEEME

[27] = molecular target: T11, TX1BP3, O14907
T11 sequence (O14907 10-122, limits assumed, looked up): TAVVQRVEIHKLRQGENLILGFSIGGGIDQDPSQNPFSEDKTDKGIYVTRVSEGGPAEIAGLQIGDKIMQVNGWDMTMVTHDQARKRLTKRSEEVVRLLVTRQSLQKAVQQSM

[28] = plain residues with an end cap or a label only (N-terminal biotin on a linker: ado-ado)
[29] = plain residues with an end cap or a label only (N-terminal biotin on a linker: ahx)
[30] = plain residues with an end cap or a label only (N-terminal biotin on a linker: ttds)

Sequence of SCRIB_1, Q14160 (Q14160 718-814): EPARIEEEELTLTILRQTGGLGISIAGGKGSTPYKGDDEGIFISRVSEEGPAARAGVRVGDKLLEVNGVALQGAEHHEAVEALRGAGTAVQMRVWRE
Sequence of DLG4_3, P78352 (P78352 306-403): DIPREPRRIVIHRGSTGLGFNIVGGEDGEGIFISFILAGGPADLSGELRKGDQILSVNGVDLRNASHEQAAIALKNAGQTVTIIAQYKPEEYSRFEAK
Sequence of DLG4_1, P78352 (P78352 62-152): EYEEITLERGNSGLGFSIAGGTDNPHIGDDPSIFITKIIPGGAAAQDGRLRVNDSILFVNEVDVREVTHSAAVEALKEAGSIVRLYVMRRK
Sequence of SCRIB_2, Q14160 (Q14160 857-960): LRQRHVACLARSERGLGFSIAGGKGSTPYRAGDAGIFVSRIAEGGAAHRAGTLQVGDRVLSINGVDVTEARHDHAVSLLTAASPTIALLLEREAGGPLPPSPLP
Sequence of GRIP2_5, Q9C0E4 (Q9C0E4 544-642): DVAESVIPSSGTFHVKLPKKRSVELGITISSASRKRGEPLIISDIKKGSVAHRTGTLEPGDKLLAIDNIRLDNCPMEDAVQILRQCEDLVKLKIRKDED
Sequence of GRID2IP_2, A4D2P6 (A4D2P6 272-370): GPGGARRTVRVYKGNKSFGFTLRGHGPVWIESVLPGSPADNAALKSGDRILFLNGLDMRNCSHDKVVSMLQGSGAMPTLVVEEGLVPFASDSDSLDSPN
Sequence of MAGI2_2, Q86UL8 (Q86UL8 410-522): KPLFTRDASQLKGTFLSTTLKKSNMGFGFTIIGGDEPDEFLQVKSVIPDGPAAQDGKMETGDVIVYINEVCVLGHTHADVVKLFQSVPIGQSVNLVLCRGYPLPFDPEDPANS
Sequence of LDB3, O75112 (O75112 1-94): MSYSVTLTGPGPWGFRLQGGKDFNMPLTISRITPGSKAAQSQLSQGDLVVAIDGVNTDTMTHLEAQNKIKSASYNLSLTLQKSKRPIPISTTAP
Sequence of MAST2, Q6P0Q8 (Q6P0Q8 1099-1202): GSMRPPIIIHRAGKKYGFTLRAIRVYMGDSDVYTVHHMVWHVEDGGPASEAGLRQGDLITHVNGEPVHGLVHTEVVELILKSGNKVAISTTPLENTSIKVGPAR
Sequence of ARHGEF12, Q9NZN5-2 (Q9NZN5 other isoform, or with tags, fused parts or gaps): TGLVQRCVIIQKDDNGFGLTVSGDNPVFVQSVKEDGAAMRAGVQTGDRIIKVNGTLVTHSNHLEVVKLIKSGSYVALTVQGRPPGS
Sequence of GRIP2_6, Q9C0E4 (Q9C0E4 648-740): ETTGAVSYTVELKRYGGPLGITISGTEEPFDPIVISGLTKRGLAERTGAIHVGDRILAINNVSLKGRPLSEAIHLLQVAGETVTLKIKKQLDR
Sequence of LNX1_1, Q8TBB1 (Q8TBB1 261-371): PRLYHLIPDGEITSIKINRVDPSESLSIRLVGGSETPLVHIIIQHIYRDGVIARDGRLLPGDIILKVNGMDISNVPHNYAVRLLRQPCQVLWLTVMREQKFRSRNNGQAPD
Sequence of GIPC2, Q8TF65 (Q8TF65 112-203): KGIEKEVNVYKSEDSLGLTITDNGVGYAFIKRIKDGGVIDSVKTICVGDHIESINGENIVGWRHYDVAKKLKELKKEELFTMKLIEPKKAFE
Sequence of GRID2IP_1, A4D2P6 (A4D2P6 1-87): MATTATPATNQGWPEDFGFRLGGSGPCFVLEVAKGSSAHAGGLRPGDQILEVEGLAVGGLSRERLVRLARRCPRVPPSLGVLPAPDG
Sequence of SCRIB_3, Q14160 (Q14160 999-1103): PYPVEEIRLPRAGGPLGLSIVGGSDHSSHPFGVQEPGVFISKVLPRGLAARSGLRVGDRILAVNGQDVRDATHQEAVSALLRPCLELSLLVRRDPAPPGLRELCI
Sequence of GRIP2_7, Q9C0E4 (Q9C0E4 934-1023): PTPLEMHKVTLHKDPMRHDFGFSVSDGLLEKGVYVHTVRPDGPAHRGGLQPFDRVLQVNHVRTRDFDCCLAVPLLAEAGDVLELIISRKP

Binder: SQDPKKPSRV [CBY2, Q8NA61]
- pKd [1, 28]: below the threshold
- pKd [2, 28]: below the threshold
- pKd [3, 28]: 3.66
- pKd [4, 28]: below the threshold
- pKd [5, 28]: below the threshold
- pKd [6, 28]: below the threshold
- pKd [7, 28]: below the threshold
- pKd [8, 28]: below the threshold
- pKd [9, 28]: below the threshold
- pKd [10, 28]: below the threshold
- pKd [11, 28]: below the threshold
- pKd [12, 28]: below the threshold
- pKd [13, 28]: below the threshold
- pKd [14, 28]: below the threshold
- pKd [15, 28]: 3.5
- pKd [16, 28]: 4.38
- pKd [17, 28]: below the threshold
- pKd [18, 28]: below the threshold
- pKd [19, 28]: 3.89
- pKd [20, 28]: 3.56
- pKd [21, 28]: below the threshold
- pKd [22, 28]: below the threshold
- pKd [23, 28]: below the threshold
- pKd [24, 28]: 3.48
- pKd [25, 28]: below the threshold
- pKd [26, 28]: below the threshold
- pKd [27, 28]: below the threshold

Binder: VNENQKEYFF [CNTNAP4, Q9C0A0]
- pKd [1, 29]: below the threshold
- pKd [2, 29]: below the threshold
- pKd [3, 29]: below the threshold
- pKd [4, 29]: below the threshold
- pKd [5, 29]: below the threshold
- pKd [6, 29]: below the threshold
- pKd [7, 29]: below the threshold
- pKd [8, 29]: below the threshold
- pKd [9, 29]: 4.14
- pKd [10, 29]: below the threshold
- pKd [11, 29]: 5.04
- pKd [12, 29]: 5.77
- pKd [13, 29]: below the threshold
- pKd [14, 29]: below the threshold
- pKd [15, 29]: below the threshold
- pKd [16, 29]: below the threshold
- pKd [17, 29]: 5.08
- pKd [18, 29]: below the threshold
- pKd [19, 29]: below the threshold
- pKd [20, 29]: below the threshold
- pKd [21, 29]: below the threshold
- pKd [22, 29]: below the threshold
- pKd [23, 29]: 3.7
- pKd [24, 29]: below the threshold
- pKd [25, 29]: below the threshold
- pKd [26, 29]: below the threshold
- pKd [27, 29]: below the threshold

The next lines start with the values.

- pKd [1, 29]: below the threshold
- pKd [2, 29]: below the threshold
- pKd [3, 29]: 4.21
- pKd [4, 29]: below the threshold
- pKd [5, 29]: below the threshold
- pKd [6, 29]: below the threshold
- pKd [7, 29]: below the threshold
- pKd [8, 29]: below the threshold
- pKd [9, 29]: below the threshold
- pKd [10, 29]: below the threshold
- pKd [11, 29]: below the threshold
- pKd [12, 29]: below the threshold
- pKd [13, 29]: below the threshold
- pKd [14, 29]: below the threshold
- pKd [15, 29]: below the threshold
- pKd [16, 29]: 3.48
- pKd [17, 29]: 4.38
- pKd [18, 29]: below the threshold
- pKd [19, 29]: below the threshold
- pKd [20, 29]: below the threshold
- pKd [21, 29]: 3.79
- pKd [22, 29]: 3.95
- pKd [23, 29]: 3.74
- pKd [24, 29]: 3.65
- pKd [25, 29]: 3.78
- pKd [26, 29]: below the threshold
- pKd [27, 29]: 3.8
Binder: HSATSVHTSV [MTMR1, Q13613]

- pKd [1, 30]: below the threshold
- pKd [2, 30]: below the threshold
- pKd [3, 30]: below the threshold
- pKd [4, 30]: below the threshold
- pKd [5, 30]: below the threshold
- pKd [6, 30]: below the threshold
- pKd [7, 30]: below the threshold
- pKd [8, 30]: below the threshold
- pKd [9, 30]: below the threshold
- pKd [10, 30]: below the threshold
- pKd [11, 30]: below the threshold
- pKd [12, 30]: below the threshold
- pKd [13, 30]: below the threshold
- pKd [14, 30]: 3.49
- pKd [15, 30]: below the threshold
- pKd [16, 30]: below the threshold
- pKd [17, 30]: 5.31
- pKd [18, 30]: below the threshold
- pKd [19, 30]: below the threshold
- pKd [20, 30]: below the threshold
- pKd [21, 30]: 5.08
- pKd [22, 30]: below the threshold
- pKd [23, 30]: below the threshold
- pKd [24, 30]: 3.63
- pKd [25, 30]: below the threshold
- pKd [26, 30]: 3.5
- pKd [27, 30]: below the threshold
Binder: DLDEEEDTHL [PODXL, O00592]

- pKd [1, 30]: 4.06
- pKd [2, 30]: below the threshold
- pKd [3, 30]: 3.97
- pKd [4, 30]: 4.87
- pKd [5, 30]: below the threshold
- pKd [6, 30]: 3.58
- pKd [7, 30]: below the threshold
- pKd [8, 30]: 3.69
- pKd [9, 30]: 3.49
- pKd [10, 30]: below the threshold
- pKd [11, 30]: 3.36
- pKd [12, 30]: below the threshold
- pKd [13, 30]: below the threshold
- pKd [14, 30]: below the threshold
- pKd [15, 30]: below the threshold
- pKd [16, 30]: 4.03
- pKd [17, 30]: 4.88
- pKd [18, 30]: below the threshold
- pKd [19, 30]: below the threshold
- pKd [20, 30]: 4.37
- pKd [21, 30]: 4.49
- pKd [22, 30]: 3.75
- pKd [23, 30]: 4.97
- pKd [24, 30]: 4.06
- pKd [25, 30]: 3.97
- pKd [26, 30]: below the threshold
- pKd [27, 30]: 4.23
Binder: PSRDRKETSI [RALBP1, Q15311]
